Data taken from PMC9176698.

Assays:
DR4-Fc = DR4-Fc (UniProt O00220); assay: BLI; Octet; DR4-Fc or DR5-Fc immobilised on protein A-coated biosensors, inserted into solutions of TRAIL proteins at different concentrations (2.5-50 nM)
DR5-Fc = DR5-Fc (UniProt O14763); assay: as above
Sequence of UniProt O14763 (O14763 56-210): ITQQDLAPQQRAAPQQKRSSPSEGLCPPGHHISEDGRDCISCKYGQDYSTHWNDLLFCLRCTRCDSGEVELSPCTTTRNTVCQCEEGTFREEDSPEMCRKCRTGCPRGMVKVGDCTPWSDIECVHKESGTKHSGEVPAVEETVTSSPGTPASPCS

Sequence of UniProt O00220 (O00220 24-239): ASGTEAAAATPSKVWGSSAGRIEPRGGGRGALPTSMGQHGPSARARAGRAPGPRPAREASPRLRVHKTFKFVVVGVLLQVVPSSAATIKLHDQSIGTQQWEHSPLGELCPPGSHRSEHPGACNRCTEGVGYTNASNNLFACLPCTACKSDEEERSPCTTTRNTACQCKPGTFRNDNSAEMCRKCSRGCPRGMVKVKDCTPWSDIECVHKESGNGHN

## RGR-TRAIL (tumor-homing RGR peptide fused to the N-terminus of TRAIL) (ligand)
DR4-Fc
  Kd: 1.1 nM
DR5-Fc
  Kd: 0.46 nM
